Assay [1] has as its target T1, CTLA-4-Fc (human recombinant protein, R&D Systems) (human, UniProt P16410 37-162).
T1 construct: also called CTLA-4-Fc antigen; not shown: Fc part of the bought fusion
T1 sequence: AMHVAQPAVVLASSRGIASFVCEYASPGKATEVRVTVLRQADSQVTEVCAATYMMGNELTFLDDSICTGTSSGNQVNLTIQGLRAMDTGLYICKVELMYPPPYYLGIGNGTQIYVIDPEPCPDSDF
Briefly: Octet, same tip after PDL1-His and bispecific, then CTLA-4-Fc (100 nM per paragraph 296): concurrent binding. On the technique in general: BLI is a label-free optical method that tracks binding on a fibre tip over time.

Assay [2] deals with T2, human PD-1 expressed on cells (human, UniProt Q15116 25-288).
T2 construct: also called CHO cells overexpressing human PD1
T2 sequence (Q15116 25-288 limits assumed): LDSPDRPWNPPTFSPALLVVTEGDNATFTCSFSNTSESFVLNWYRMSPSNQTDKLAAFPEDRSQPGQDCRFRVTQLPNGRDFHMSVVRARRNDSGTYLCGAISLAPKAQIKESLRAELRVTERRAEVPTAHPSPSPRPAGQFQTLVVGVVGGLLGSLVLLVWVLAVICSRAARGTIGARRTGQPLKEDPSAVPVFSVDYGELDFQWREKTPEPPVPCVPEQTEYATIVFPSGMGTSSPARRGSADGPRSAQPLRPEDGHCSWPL
Briefly: flow cytometry, CHO cells expressing PD-1:CTLA-4 (10:1). For orientation: A flow cytometer gives signals particle by particle.

The target of the next assay is T3, cynomolgus PD-1 (cynomolgus, UniProt B0LAJ3 25-170).
T3 construct: also called cyno PD1
T3 sequence (B0LAJ3 entry or part of it limits assumed): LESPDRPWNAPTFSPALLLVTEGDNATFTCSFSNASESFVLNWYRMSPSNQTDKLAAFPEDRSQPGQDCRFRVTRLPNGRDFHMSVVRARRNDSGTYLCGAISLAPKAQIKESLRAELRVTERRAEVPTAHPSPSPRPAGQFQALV
Kind of assay: SPR, BIAcore T200; antibody captured on mouse anti-huIgG-Fab, antigen injected. On the technique in general: SPR reads the build-up and loss of mass on a sensor chip optically.

A further assay deals with T4, mouse PD-1 (mouse, UniProt Q02242 25-167).
T4 construct: also called mu PD1
T4 sequence (looked up): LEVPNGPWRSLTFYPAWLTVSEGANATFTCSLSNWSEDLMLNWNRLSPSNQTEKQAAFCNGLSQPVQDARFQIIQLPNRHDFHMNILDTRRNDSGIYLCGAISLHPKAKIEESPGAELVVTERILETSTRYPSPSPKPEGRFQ
Described as above.

For assay [3], the target named is T5, human PD-1 antigen (soluble) (human, UniProt Q15116 25-170).
T5 construct: also called hu PD1; Biotinylated human PD-1
T5 sequence (Q15116 25-170 limits assumed): as the sequence (B0LAJ3 entry or part of it limits assumed) above, with E2D, A10P, L19V, A35T, R75Q, A144T counted along it
Described as above.

In assay [4] the target is T2, human PD-1 expressed on cells. Briefly: flow cytometry, IgG binding to cultured T cells stimulated with anti-CD3+anti-CD28, CD4+ gate.
Assay [5] shares this target. Briefly: flow cytometry receptor occupancy, CHO cells expressing PD-1:CTLA-4 (10:1); free PD-1 detected with labeled anti-PD-1 mAb.
For assay [6] the target is unchanged. Kind of assay: flow cytometry receptor occupancy, CHO cells expressing PD-1:CTLA-4 (40:1); free PD-1 detected with labeled anti-PD-1 mAb.
For assay [7] the target is unchanged. Kind of assay: flow cytometry receptor occupancy, CHO cells expressing PD-1:CTLA-4 (40:1), combination of the anti-PD-1 and anti-CTLA-4 mAbs; free PD-1 detected with labeled anti-PD-1 mAb; the light-triangle curve crosses 50 % at about 6 to 7 nM.
The target is the same in assay [8]. Kind of assay: cell-based or functional assay.
Assay [9] addresses T6, human OX40 expressed on cells (human, UniProt P43489 29-277).
T6 sequence: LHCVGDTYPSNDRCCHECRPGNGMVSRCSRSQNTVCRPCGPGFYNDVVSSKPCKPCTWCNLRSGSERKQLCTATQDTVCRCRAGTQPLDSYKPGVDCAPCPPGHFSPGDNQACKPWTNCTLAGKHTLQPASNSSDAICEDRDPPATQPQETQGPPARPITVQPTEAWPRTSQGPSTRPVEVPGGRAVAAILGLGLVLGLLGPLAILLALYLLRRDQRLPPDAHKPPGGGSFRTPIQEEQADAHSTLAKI
Briefly: cell-based or functional assay.

Assay [10] addresses T7, human CTLA-4 expressed on cells (human, UniProt P16410 36-223).
T7 sequence: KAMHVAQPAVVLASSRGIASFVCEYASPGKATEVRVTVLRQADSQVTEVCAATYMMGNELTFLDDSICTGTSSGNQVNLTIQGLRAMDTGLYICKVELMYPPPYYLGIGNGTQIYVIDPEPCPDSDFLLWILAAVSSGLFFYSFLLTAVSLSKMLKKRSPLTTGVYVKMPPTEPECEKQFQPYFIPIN
Kind of assay: cell-based or functional assay.

The target of assay [11] is T2, human PD-1 expressed on cells. Kind of assay: flow cytometry, HumanPD1 CHO cells, x axis hIgG1TM mAb (nM).

B1: Bis5 PD-L1/CTLA-4 (bispecific antibody, human IgG4 S228P, kappa)
heavy: EVQLVESGGGLVQPGGSLRLSCAASGFTFSRYWMSWVRQAPGKGLEWVANIKQDGSEKYYVDSVKGRFTISRDNAKNSLYLQMNSLRAEDTAVYYCAREGGWFGELAFDYWGQGTLVTVSSASTKGPSVFPLAPCSRSTSESTAALGCLVKDYFPEPVTVSWNSGALTSGVHTFPAVLQSSGLYSLSSVVTVPSSSLGTKTYTCNVDHKPSNTKVDKRVESKYGPPCPPCPAPEFLGGPSVFLFPPKPKDTLMISRTPEVTCVVVDVSQEDPEVQFNWYVDGVEVHNAKTKPREEQFNSTYRVVSVLTVLHQDWLNGKEYKCKVSNKGLPSSIEKTISKAKGQPREPQVYTLPPSQEEMTKNQVSLTCLVKGFYPSDIAVEWESNGGGGSGGGGSDIQMTQSPSSLSASVGDRVTITCRASQSINSYLDWYQQKPGKAPKLLIYAASSLQSGVPSRFSGSGSGTDFTLTISSLQPEDFATYYCQQYYSTPFTFGCGTKVEIKGGGGSGGGGSGGGGSGGGGSQVQLVESGGGVVQPGRSLRLSCAASGFTFSSYGMHWVRQAPGKCLEWVAVIWYDGSNKYYADSVKGRFTISRDNSKNTLYLQMNSLRAEDTAVYYCARDPRGATLYYYYYGMDVWGQGTTVTVSSGGGGSGGGGSGQPENNYKTTPPVLDSDGSFFLYSRLTVDKSRWQEGNVFSCSVMHEALHNHYTQKSLSLSLGK
light: EIVLTQSPGTLSLSPGERATLSCRASQRVSSSYLAWYQQKPGQAPRLLIYDASSRATGIPDRFSGSGSGTDFTLTISRLEPEDFAVYYCQQYGSLPWTFGQGTKVEIKRTVAAPSVFIFPPSDEQLKSGTASVVCLLNNFYPREAKVQWKVDNALQSGNSQESVTEQDSKDSTYSLSSTLTLSKADYEKHKVYACEVTHQGLSSPVTKSFNRGEC
For B1, the binding result in assay [1] is listed as “binds”.

B2: Anti-PD-1 (LO115) IgG (antibody, V domains shown)
VH: EVQLVESGGGLVQPGGSLRLSCAASGFTFSDYGMHWVRQAPGKGLEWVAYISSGSYTIYSADSVKGRFTISRDNAKNSLYLQMNSLRAEDTAVYYCARRAPNSFYEYYFDYWGQGTTVTVSS
VL: QIVLTQSPATLSLSPGERATLSCSASSKHTNLYWSRHMYWYQQKPGQAPRLLIYLTSNRATGIPARFSGSGSGTDFTLTISSLEPEDFAVYYCQQWSSNPFTFGQGTKLEIK
notes: also called anti-PD-1 parental monoclonal antibody
As usually defined, the EC50 (read off the curve) is the concentration giving half of the maximal effect. Higher therefore signals weaker potency. Usually Kd stands for the free concentration of one partner at which half of the binding sites on the other are occupied at equilibrium, for simple one-to-one binding. In general, koff refers to the first-order rate constant of dissociation. As a reminder, the kon is a measure of how fast the partners come together. As a reminder, the IC50 is the concentration that inhibits the measured activity by half. Turning to B2, the entries for the 50% effective concentration (EC50 (read off the curve)) in [2] and in [4] were approximately 2 nM and approximately 1 nM, respectively. The Kd with cynomolgus PD-1 worked out at 0.69 nM; in the assay with mouse PD-1, 447 nM; in [3], 0.79 nM. In addition, the koff with cynomolgus PD-1 turned out to be 0.000238 s⁻¹; with mouse PD-1, 0.0665 s⁻¹; in [3], 0.000237 s⁻¹. Besides, the results for the on-rate constant (kon) (in the assay with cynomolgus PD-1; in the assay with mouse PD-1; in [3]) were 346000 M⁻¹ s⁻¹, 149000 M⁻¹ s⁻¹ and 302000 M⁻¹ s⁻¹, respectively. In addition, the IC50 in assay [5] was 3.9 nM; in [6], 5.5 nM; in assay [7], 6.4 nM.

B3: PD-1(LO115)/OX40 BiS2 mAb (bispecific antibody, human IgG4 S228P, kappa)
heavy: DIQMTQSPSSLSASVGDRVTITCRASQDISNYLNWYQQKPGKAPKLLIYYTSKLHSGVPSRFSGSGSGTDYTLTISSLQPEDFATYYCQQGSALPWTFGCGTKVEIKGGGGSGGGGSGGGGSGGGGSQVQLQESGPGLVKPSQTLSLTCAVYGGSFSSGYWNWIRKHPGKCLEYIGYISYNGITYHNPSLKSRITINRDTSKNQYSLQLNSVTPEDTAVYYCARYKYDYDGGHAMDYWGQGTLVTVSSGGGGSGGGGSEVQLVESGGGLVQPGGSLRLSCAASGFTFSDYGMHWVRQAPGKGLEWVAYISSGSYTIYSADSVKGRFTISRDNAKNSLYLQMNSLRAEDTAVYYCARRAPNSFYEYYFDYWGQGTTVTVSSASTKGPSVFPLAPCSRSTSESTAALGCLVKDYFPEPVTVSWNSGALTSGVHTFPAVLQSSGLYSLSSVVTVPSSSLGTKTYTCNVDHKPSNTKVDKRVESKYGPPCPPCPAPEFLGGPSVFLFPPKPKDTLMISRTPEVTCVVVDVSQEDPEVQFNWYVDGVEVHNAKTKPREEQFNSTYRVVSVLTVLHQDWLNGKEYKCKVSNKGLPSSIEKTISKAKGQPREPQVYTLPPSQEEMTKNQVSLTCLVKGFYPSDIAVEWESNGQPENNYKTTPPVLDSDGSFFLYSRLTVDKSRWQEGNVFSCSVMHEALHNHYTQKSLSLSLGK
light: QIVLTQSPATLSLSPGERATLSCSASSKHTNLYWSRHMYWYQQKPGQAPRLLIYLTSNRATGIPARFSGSGSGTDFTLTISSLEPEDFAVYYCQQWSSNPFTFGQGTKLEIKRTVAAPSVFIFPPSDEQLKSGTASVVCLLNNFYPREAKVQWKVDNALQSGNSQESVTEQDSKDSTYSLSSTLTLSKADYEKHKVYACEVTHQGLSSPVTKSFNRGEC
For the molecule B3, in [8], the “PD-1/PD-L1 reporter assay, EC50 (relative light units)” value is approximately 1 nM. Also, the “OX40 reporter assay, EC50 (relative light units)” value in assay [9] is approximately 2 nM.

B4: Bis5 PD-1/CTLA-4 (bispecific antibody, human IgG4 S228P, kappa)
heavy: EVQLVESGGGLVQPGGSLRLSCAASGFTFSDYGMHWVRQAPGKGLEWVAYISSGSYTIYSADSVKGRFTISRDNAKNSLYLQMNSLRAEDTAVYYCARRAPNSFYEYYFDYWGQGTTVTVSSASTKGPSVFPLAPCSRSTSESTAALGCLVKDYFPEPVTVSWNSGALTSGVHTFPAVLQSSGLYSLSSVVTVPSSSLGTKTYTCNVDHKPSNTKVDKRVESKYGPPCPPCPAPEFLGGPSVFLFPPKPKDTLMISRTPEVTCVVVDVSQEDPEVQFNWYVDGVEVHNAKTKPREEQFNSTYRVVSVLTVLHQDWLNGKEYKCKVSNKGLPSSIEKTISKAKGQPREPQVYTLPPSQEEMTKNQVSLTCLVKGFYPSDIAVEWESNGGGGSGGGGSDIQMTQSPSSLSASVGDRVTITCRASQSINSYLDWYQQKPGKAPKLLIYAASSLQSGVPSRFSGSGSGTDFTLTISSLQPEDFATYYCQQYYSTPFTFGCGTKVEIKGGGGSGGGGSGGGGSGGGGSQVQLVESGGGVVQPGRSLRLSCAASGFTFSSYGMHWVRQAPGKCLEWVAVIWYDGSNKYYADSVKGRFTISRDNSKNTLYLQMNSLRAEDTAVYYCARDPRGATLYYYYYGMDVWGQGTTVTVSSGGGGSGGGGSGQPENNYKTTPPVLDSDGSFFLYSRLTVDKSRWQEGNVFSCSVMHEALHNHYTQKSLSLSLGK
light: QIVLTQSPATLSLSPGERATLSCSASSKHTNLYWSRHMYWYQQKPGQAPRLLIYLTSNRATGIPARFSGSGSGTDFTLTISSLEPEDFAVYYCQQWSSNPFTFGQGTKLEIKRTVAAPSVFIFPPSDEQLKSGTASVVCLLNNFYPREAKVQWKVDNALQSGNSQESVTEQDSKDSTYSLSSTLTLSKADYEKHKVYACEVTHQGLSSPVTKSFNRGEC
In the case of B4, the “fold decrease in CTLA-4 reporter gene assay, potency” value in assay [10] was approximately 3 fold.

B5: BiS3 PD-1(LO115)/TIM3(O13-1) (bispecific antibody, human IgG1, kappa)
heavy: EVQLVESGGGLVQPGGSLRLSCAASGFTFSDYGMHWVRQAPGKGLEWVAYISSGSYTIYSADSVKGRFTISRDNAKNSLYLQMNSLRAEDTAVYYCARRAPNSFYEYYFDYWGQGTTVTVSSASTKGPSVFPLAPSSKSTSGGTAALGCLVKDYFPEPVTVSWNSGALTSGVHTFPAVLQSSGLYSLSSVVTVPSSSLGTQTYICNVNHKPSNTKVDKRVEPKSCDKTHTCPPCPAPEFEGGPSVFLFPPKPKDTLMISRTPEVTCVVVDVSHEDPEVKFNWYVDGVEVHNAKTKPREEQYNSTYRVVSVLTVLHQDWLNGKEYKCKVSNKALPASIEKTISKAKGQPREPQVYTLPPSREEMTKNQVSLTCLVKGFYPSDIAVEWESNGQPENNYKTTPPVLDSDGSFFLYSKLTVDKSRWQQGNVFSCSVMHEALHNHYTQKSLSLSPGKGGGGSGGGGSEVQLLESGGGLVQPGGSLRLSCAASGFTFSSYAMSWVRQAPGKCLEWVSAISGSGGSTYYADSVKGRFTISRDNSKNTLYLQMNSLRAEDTAVYYCARGSYGTYYGNYFEYWGQGTLVTVSSGGGGSGGGGSGGGGSGGGGSSYVLTQPPSVSVAPGKTARITCGGDNIGGKSVHWYQQKPGQAPVLVIYYDSDRPSGIPERFSGSNSGNTATLTISRVEAGDEADYYCQVLDRRSDHFLFGCGTKLTVL
light: QIVLTQSPATLSLSPGERATLSCSASSKHTNLYWSRHMYWYQQKPGQAPRLLIYLTSNRATGIPARFSGSGSGTDFTLTISSLEPEDFAVYYCQQWSSNPFTFGQGTKLEIKRTVAAPSVFIFPPSDEQLKSGTASVVCLLNNFYPREAKVQWKVDNALQSGNSQESVTEQDSKDSTYSLSSTLTLSKADYEKHKVYACEVTHQGLSSPVTKSFNRGEC
notes: also called PD-1/TIM3 BiS3
In the case of B5, the “EC50 (read off the curve)” value in [11] was approximately 4 nM.

The values above are taken from patent publication US20220251204A1 (AstraZeneca / MedImmune, published 2022).
